B1: TPR t1 (parent)
chain: GACCAAUCUGCCCUCAGAGCUCGAGAACAUCUUCGGAUGCAGAGGAGGCAGGCUUCGGUGGCGCGAUAGCGCCAACGUCCUCAACCUCCAAUGCAUCCCACCACAUGAUGAUGCCUGAAGAGCCUUGGUUUUUUG

Variants of: B1
Test: polymerase ribozyme fitness, log enrichment relative to wild type (log ratio); higher = more active; in vitro selection for triplet polymerase activity
Procedure, shortened: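 Mutant libraries were PCR-built and transcribed for each subunit of a heterodimeric triplet polymerase ribozyme and selected for one round in triplicate at −7 °C, frozen, before gel excision of extended constructs and streptavidin-bead capture. Input and output libraries were Illumina-sequenced, keeping genotypes with ≥10 input reads and ≥1 read per output. Fitness is a logarithmic ratio of genotype to wild-type enrichment, in base 2, using inverse-variance-weighted replicate averages.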

Row | Variant | polymerase ribozyme fitness (log ratio)
1 | GACCAAUCUGUCCUCAGAGCUCGAGAUCAUCUUCGGAUGCAGAGGAGGCAGGCUUCGGUGGCGCGAUAGCUCCAACGUCCUCAACCUCCAAUGCAUCCCAGCAUAUGAUGCUGCCUGAAGAGCCUUGGUUUUUUG [C11U A27U G71U C101G C104U A111C] | -6.17
2 | GACCAAUCUGUCCUCAGAGCUCGAGAACAUCUUCGGUUGCAGAGAAGGCAGGCUUCGGUGGCGCGAUAGCGCCAACGUCCUCAACCUCCAAUGCAUCCCACCACAUGAUGAUGCCUGAAGAGCCUUGGUUUUUUG [C11U A37U G45A] | -1.81
3 | GACCAAUCUGUCCUCAGAGCUCGAGAACCUCUUCGGAUGCAGAGGAGGCAGGCUUCGGUGGCGCGAUAGCGCCAACGUCCUCAACCUCCAAUGCAUCCCACCACAUGAUGAUGCCUGAAGAGCCUUGGUUUUUUG [C11U A29C] | -3.12
4 | GACCAAUCUGUCCUCAGAGCUCGAGAACUUCUUCGGAUGCAGAGGAGGCAGGCUUCGGUGGCGCGAUAGCGCCAACGUCCUCAACCUCCAAUGCAUCCCACCACAUGAUGAUGCCUGAAGAGCCUUGGUUUUUUG [C11U A29U] | -2.46
5 | GACCAAUCUGUCCUCAGAGCUCGAGAACAUCUUCGGAUGCAGGGGAGGCAGGCUUCGGUGGCGCGAUAGCGGCAACGUCCUCAACCUCCAAUGCAUCCCACCACAUGAUGAUGCCUGAAGAGCCUUGGUUUUUUG [C11U A43G C72G] | -2.54
6 | GACCAAUCUGUCCUCAGAGCUCGAGAACAUCUUCGGAUGCAGAGGAGGCUGGCUUCGGUGGCGCGAUAGUGCCAACGUCCUCAACCUCCAAUGCAUCCCACCACAUGAUGAUACCUGAAGAGCCUUGGUUUUUUG [C11U A50U C70U G113A] | -2.63
7 | GACCAAUCUGUCCUCAGAGCUCGGGAACAUCUUCGGAUGCAGAGGAUGCAGGCUUCGGUGGCGCGAUAGCGCCAACUUCCUCAACCUCCAAUGCAUCCCACCACAUGAUGAUGCCCGAAGAGCCUUGGUUUUUUG [C11U A24G G47U G77U U116C] | -7.91
8 | GACCAAUCUGUCCUCAGAGCUCGAGUACAUCUUCGGAUGCAGAGGAGGCAGCCUUCGGUGGCGCGAUAGCGCCAACGUCCUCAACCUCCAAUGCAUCCCACCACAUGAUGAUGCCUGAAGAGCCUUGGUUUUUUG [C11U A26U G52C] | -3.53
9 | GACCAAUCUGUCCUCAGAGCUCGAGAACAUCUUCGGAUGCGGAGGAGGCAGGCUUGGGUGGCGCGAUAGCGCCAACGUCCUCAACCUCCAAUGCAUCCCACCACAUGAUGAUGCCUGAAGAGCAUUGGUUUUUUG [C11U A41G C56G C124A] | 1.04
10 | GACCAAUCUGUCCUCAGUGCUCGAGAACAUCUUCGGAUGCAGAGGAGGCAGGCUUCGGUGGCGCGAUAUCGCCAACGUCCUCAACCUCCAAUGCAUCCCACCACAUGAUGAUGCCUGAAGAGCCUUGGUUUUUUG [C11U A18U G69U] | -0.642
11 | GACCAAUCUGUCCUCAGAGCUCGAGAACAUCUUCGGAUGCAGAGGAGGCGGGCUUCGGUGGCGCGAUAGCGCCAACGUCCUCAACCUCCAAUGCAUCCCACCACAUGAUGAUGCCUGAAGAGCCUUGGUUUUUUG [C11U A50G] | -0.405
12 | GACCAAUCUGUCCUCUGAGCUCGAGAACAUCUUCGGAUGCAGAGGAGGCAGGCUUCGGUGGCGCGAUAGCGCCAACGUCCUCAACCUCCAAUGCAUCCCACCACAUGAUGAAGCCUGAAGAGCCUUGGUUUUUUG [C11U A16U U112A] | -0.434
13 | GACCAAUCUGUCCUCAGAGCUCGAGAACAUCUUCGGCUGCAGAGUAGGCAGGCUUCGAUGGCGCGAUAGCGCCAACGUCCUCAACCUCCAAUGCAUCCCACCACAUGAUGAUGCCUGAAGAGCCUUGGUUUUUUG [C11U A37C G45U G58A] | -2.72
14 | GACCAAUCUGUCCUCAGAGCUCGAGAACAUCUUCGGUUGCAGAGGAGGCAGGCUCCGGUGGCGCGAUAGCGCCAACGUCCUCAACCUCCAAUGCAUCCCACCACAUGAUGAUGCCUGAAGAGCCUUGGUUUUUUG [C11U A37U U55C] | -1.28
15 | GACCAAUCUGUCCUCAGAGCUCGAGAACAUCUUCGGAUGCAGUGGAGGCAGGCUUCGGUGGCGCGAUAGCGCCAACGUCCUCAACCUCCAAUGCAUCCCACCACAUGAUGAUGCCUGAAGAGCCUUGGUUUUUUG [C11U A43U] | -1.62
16 | GACCAAUCUGUCCUCAGAGCUCGAGAACAUCUUCGGAUGCAGAGGAGGCUGGCUUCGGUGGCGCGAUAGCGCCAACGUCCUCAACCUUCAAUGCAUCCCACCACAUGAUGAUGCCUGAAGAGCCUUGGUUUUUUG [C11U A50U C88U] | -1.26
17 | GACCAAUCUGUCCUCAGAGCUCGAGAACAUCUUCGGAUGCAGUGGAGGCAGGCUUUGGUGGCGCGAUAGCGCCAACGUCCUCAACCUCCAAUGCAUCCCACCACAUGAUGAUGGCUGAAGAGCCUUGCUUUUUUG [C11U A43U C56U C114G G128C] | -5.28
18 | GACCAAUCUGUCCUCAGUGUUCGAGAACAUCUUCGGAUGCAGAGGAGGCAGGCUUUGGUGGCGCGAUAGCGCCAACGUCCUCAACCUCCAAUGCAUCCCAACACAUGAUGAUGCCUGAAGAGCCUUGGUUUUUUG [C11U A18U C20U C56U C101A] | -3.06
19 | GACCAAUCUGUCCUCAGAGCUCGAGAACAUCUUCGGAUGCAGAGGAGGCAGGCUUCGGUGGCGCGAUAGCGCCCACGUCCUCAACCUCCAAUGCAUCCCACCACAUGAUGUUGCCUGAAGAGCCUUGGUUUUUUG [C11U A74C A111U] | -3.83
20 | GACCAAUCUGUCCUCAGAGCUCGAGUACAUCUUCGGAUGCAGAGGAGGGAGGCUUCGGUGGCGCGAUAGCGCCAACGUCCUCAACCUCCAAUGCAUCCCACCACAUGAUGAUGCCUGAAGAGCCUUGGUUUUUUG [C11U A26U C49G] | -3.4
21 | GACCAAUCUGUCCUCAGAGCUCGAGAUCAUCUUCGGAUGCAGAGGAGGCAGGCUUCGGUGGCGCGAUAGCGCCAACGUCCUCAACCUCCAAUGCAUCCCACCACAUGAUGAUGCCUGAAAAGCCUUGGUUUAUUG [C11U A27U G120A U132A] | -1.47

— the RNAGym collection of RNA variant scans (doi:10.1073/pnas.2313332121)
